Assay results reported in article PMC10397247.
Read-outs that look alike come from different tables or passages of the source.

Columns and labels:
[1] = target: T1, 4H3588-AA; test: two-hybrid library CCmax;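 further: natural log of median RNA to DNA barcode read ratio; higher means stronger binding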
T1 chain: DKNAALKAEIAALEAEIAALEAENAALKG

[2] = target: T2, 4H3606-AA; test: two-hybrid library CCmax; conditions: mean of both orientations;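 further: natural log of median RNA to DNA barcode read ratio; higher means stronger binding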
T2 chain: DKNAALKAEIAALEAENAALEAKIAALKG

[3] = target: T3, 4H3631-AA; test: two-hybrid library CCmax; conditions: mean of both orientations;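 further: natural log of median RNA to DNA barcode read ratio; higher means stronger binding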
T3 chain: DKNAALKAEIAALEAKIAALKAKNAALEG

[4] = target: T4, 4H3697-AA; test: two-hybrid library CCmax; conditions: mean of both orientations;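 further: natural log of median RNA to DNA barcode read ratio; higher means stronger binding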
T4 chain: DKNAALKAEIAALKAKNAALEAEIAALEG

[5] = target: T5, 4H3718-AA; test: two-hybrid library CCmax; conditions: mean of both orientations
T5 chain: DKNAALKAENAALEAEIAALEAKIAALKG

[6] = target: T6, 4H384-AA; test: two-hybrid library CCmax; conditions: mean of both orientations
T6 chain: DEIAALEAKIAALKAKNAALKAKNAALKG

[7] = target: T7, 4H3865-AA; test: two-hybrid library CCmax; conditions: mean of both orientations
T7 chain: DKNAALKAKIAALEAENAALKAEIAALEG

[8] = target: T8, 4H697-AA; test: two-hybrid library CCmax; conditions: mean of both orientations
T8 chain: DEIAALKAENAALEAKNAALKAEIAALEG

[9] = target: T9, 4H982-AA; test: two-hybrid library CCmax; conditions: mean of both orientations
T9 chain: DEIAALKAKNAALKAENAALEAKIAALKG

[10] = target: T10, 4H3777-AA; test: two-hybrid library CCmax
T10 chain: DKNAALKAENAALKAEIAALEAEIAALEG

[11] = target: T11, 4H380-AA; test: two-hybrid library CCmax
T11 chain: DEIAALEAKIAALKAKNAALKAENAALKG

[12] = target: T12, 4H3915-AA; test: two-hybrid library CCmax; conditions: mean of both orientations
T12 chain: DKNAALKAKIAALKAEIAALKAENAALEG

[13] = target: T13, 4H3974-AA; test: two-hybrid library CCmax; conditions: mean of both orientations
T13 chain: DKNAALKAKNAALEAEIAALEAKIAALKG

[14] = target: T14, 4H432-AA; test: two-hybrid library CCmax; conditions: mean of both orientations
T14 chain: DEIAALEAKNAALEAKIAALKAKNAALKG

[15] = target: T15, 4H446-AA; test: two-hybrid library CCmax; conditions: mean of both orientations
T15 chain: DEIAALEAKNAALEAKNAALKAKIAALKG

[16] = target: T16, 4H63-AA; test: two-hybrid library CCmax; conditions: mean of both orientations
T16 chain: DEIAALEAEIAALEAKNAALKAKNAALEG

[17] = target: T17, 4H452-AA; test: two-hybrid library CCmax
T17 chain: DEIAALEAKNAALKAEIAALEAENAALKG

[18] = target: T18, 4H56-AA; test: two-hybrid library CCmax
T18 chain: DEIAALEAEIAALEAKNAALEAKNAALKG

[19] = target: T19, 4H_APH; test: two-hybrid library CCmax
T19 chain: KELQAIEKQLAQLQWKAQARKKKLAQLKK

[20] = target: T20, 4H_BCR; test: two-hybrid library CCmax; conditions: mean of both orientations
T20 chain: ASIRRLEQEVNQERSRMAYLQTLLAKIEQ

[21] = target: 4H_GCN4; test: two-hybrid library CCmax
[22] = target: GCN2_T; test: two-hybrid library CCmax
[23] = target: T21, 4H3939-AA; test: two-hybrid library CCmax
T21 chain: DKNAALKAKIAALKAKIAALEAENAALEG

[24] = target: T22, 4H3969-AA; test: two-hybrid library CCmax; conditions: mean of both orientations
T22 chain: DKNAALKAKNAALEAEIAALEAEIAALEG

[25] = target: T23, 4H464-AA; test: two-hybrid library CCmax; conditions: mean of both orientations
T23 chain: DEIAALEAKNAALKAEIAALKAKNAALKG

[26] = target: T24, 4H483-AA; test: two-hybrid library CCmax; conditions: mean of both orientations
T24 chain: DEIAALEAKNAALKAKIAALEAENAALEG

[27] = target: T25, 4H968-bH; test: two-hybrid library CCNG1
T25 chain: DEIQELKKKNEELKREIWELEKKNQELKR

[28] = target: T26, 4H428-AA; test: two-hybrid library CCmax; conditions: mean of both orientations
T26 chain: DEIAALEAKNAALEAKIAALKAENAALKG

[29] = target: T27, 4H478-AA; test: two-hybrid library CCmax; conditions: mean of both orientations
T27 chain: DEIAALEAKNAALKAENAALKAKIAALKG

[30] = target: T28, 4H497-AA; test: two-hybrid library CCmax; conditions: mean of both orientations
T28 chain: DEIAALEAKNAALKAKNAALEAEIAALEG

[31] = target: T29, 4H656-AA; test: two-hybrid library CCmax; conditions: mean of both orientations
T29 chain: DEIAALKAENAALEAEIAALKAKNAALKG

[32] = target: T30, 4H675-AA; test: two-hybrid library CCmax; conditions: mean of both orientations
T30 chain: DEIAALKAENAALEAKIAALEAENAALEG

[33] = target: T31, 4H971-AA; test: two-hybrid library CCmax; conditions: mean of both orientations
T31 chain: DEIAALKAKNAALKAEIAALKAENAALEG

[34] = target: T32, APC9319-AA; test: two-hybrid library CCmax
T32 chain: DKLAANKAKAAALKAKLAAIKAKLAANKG

[35] = target: T33, APC8401-AA; test: two-hybrid library CCmax
T33 chain: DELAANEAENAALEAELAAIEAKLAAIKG

[36] = target: T34, APC8516-AA; test: two-hybrid library CCmax; conditions: mean of both orientations
T34 chain: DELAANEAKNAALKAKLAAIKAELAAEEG

[37] = target: T35, APC9141-AA; test: two-hybrid library CCmax; conditions: mean of both orientations
T35 chain: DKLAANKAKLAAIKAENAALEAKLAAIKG

[38] = target: T36, APC9182-AA; test: two-hybrid library CCmax; conditions: mean of both orientations
T36 chain: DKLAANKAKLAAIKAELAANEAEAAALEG

[39] = target: T37, APC9291-AA; test: two-hybrid library CCmax; conditions: mean of both orientations
T37 chain: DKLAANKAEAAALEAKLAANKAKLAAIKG

[40] = target: T38, APC9806-AA; test: two-hybrid library CCmax; conditions: mean of both orientations
T38 chain: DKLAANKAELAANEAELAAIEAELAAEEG

[41] = target: T39, 4H607-bA; test: two-hybrid library CCNG1
T39 chain: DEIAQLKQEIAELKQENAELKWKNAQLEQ

[42] = target: T40, 4H687-bA; test: two-hybrid library CCNG1
T40 chain: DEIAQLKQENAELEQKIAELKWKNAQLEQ

[43] = target: T41, 4H717-bA; test: two-hybrid library CCNG1
T41 chain: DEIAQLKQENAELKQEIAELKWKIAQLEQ

[44] = target: T42, 4H72-bA; test: two-hybrid library CCNG1
T42 chain: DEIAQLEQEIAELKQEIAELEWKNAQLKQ

[45] = target: T43, 4H754-bA; test: two-hybrid library CCNG1
T43 chain: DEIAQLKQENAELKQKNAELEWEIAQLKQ

[46] = target: T44, 4H797-bA; test: two-hybrid library CCNG1
T44 chain: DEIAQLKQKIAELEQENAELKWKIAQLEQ

[47] = target: T45, 4H883-bA; test: two-hybrid library CCNG1
T45 chain: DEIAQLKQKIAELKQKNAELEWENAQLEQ

[48] = target: T46, 4H908-bA; test: two-hybrid library CCNG1
T46 chain: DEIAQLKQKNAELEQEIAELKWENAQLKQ

[49] = target: T47, 4H918-bA; test: two-hybrid library CCNG1
T47 chain: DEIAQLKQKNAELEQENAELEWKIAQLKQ

[50] = target: T48, 4H953-bA; test: two-hybrid library CCNG1
T48 chain: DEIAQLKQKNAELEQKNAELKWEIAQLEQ

[51] = target: T49, 4H953-bH; test: two-hybrid library CCNG1
T49 chain: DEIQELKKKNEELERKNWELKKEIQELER

[52] = target: T50, 4H967-bA; test: two-hybrid library CCNG1
T50 chain: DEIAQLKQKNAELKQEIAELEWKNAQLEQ

[53] = target: T51, 4H3629-AA; test: two-hybrid library CCmax
T51 chain: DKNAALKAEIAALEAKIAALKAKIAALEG

[54] = target: T52, 4H3782-AA; test: two-hybrid library CCmax; conditions: mean of both orientations
T52 chain: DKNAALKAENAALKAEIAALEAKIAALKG

[55] = target: T53, 4H967-bH; test: two-hybrid library CCNG1
T53 chain: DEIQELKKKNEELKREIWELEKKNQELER

4H_GCN4, sequence (chain, as listed by the source): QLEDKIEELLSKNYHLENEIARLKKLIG

B1: 4H3588-AA (peptide)
chain: DKNAALKAEIAALEAEIAALEAENAALKG
[1]
  interaction score: -1.05
[2]
  interaction score: -1.57
[3]
  interaction score: -0.285
[4]
  interaction score: -2.28
[5]
  interaction score: 0.71
[6]
  interaction score: 1.38
[7]
  interaction score: -1.15
[8]
  interaction score: -1.44
[9]
  interaction score: -1.37

B2: 4H3777-AA (peptide)
chain: DKNAALKAENAALKAEIAALEAEIAALEG
[10]
  interaction score: -0.62
[11]; mean of both orientations
  interaction score: -1.42
[12]
  interaction score: -0.495
[13]
  interaction score: -0.511
[14]
  interaction score: -1.01
[15]
  interaction score: -0.779
[16]
  interaction score: -1.54

B3: 4H452-AA (peptide)
chain: DEIAALEAKNAALKAEIAALEAENAALKG
[17]
  interaction score: -0.395
[18]; mean of both orientations
  interaction score: -1.4
[19]
  interaction score: -1.91
[20]
  interaction score: -1.94
[21]
  interaction score: -0.935
[22]
  interaction score: -0.726

B4: 4H380-AA (peptide)
chain: DEIAALEAKIAALKAKNAALKAENAALKG
[11]
  interaction score: -0.176
[12]
  interaction score: 0.315
[23]; mean of both orientations
  interaction score: 0.0894
[24]
  interaction score: -1.28
[13]
  interaction score: -0.717
[14]
  interaction score: -1.71
[15]
  interaction score: -1.43
[25]
  interaction score: -1.6
[26]
  interaction score: -1.15
[16]
  interaction score: -0.855

B5: 4H968-bH (peptide)
chain: DEIQELKKKNEELKREIWELEKKNQELKR
[27]
  interaction score: 0.196

B6: 4H56-AA (peptide)
chain: DEIAALEAEIAALEAKNAALEAKNAALKG
[18]
  interaction score: -0.981
[19]; mean of both orientations
  interaction score: -1.29
[20]
  interaction score: -1.53
[21]
  interaction score: -1.92
[22]
  interaction score: -1.38

B7: 4H3939-AA (peptide)
chain: DKNAALKAKIAALKAKIAALEAENAALEG
[23]
  interaction score: -1.07
[24]
  interaction score: -0.371
[28]
  interaction score: -1.64
[15]
  interaction score: -0.459
[25]
  interaction score: -1.97
[29]
  interaction score: -1.63
[26]
  interaction score: -2.02
[30]
  interaction score: -1.92
[16]
  interaction score: 1.57
[31]
  interaction score: -0.924
[32]
  interaction score: -1.53
[33]
  interaction score: -1.81

B8: APC9319-AA (peptide)
chain: DKLAANKAKAAALKAKLAAIKAKLAANKG
[34]
  interaction score: -1.58

B9: APC8401-AA (peptide)
chain: DELAANEAENAALEAELAAIEAKLAAIKG
[35]
  interaction score: -1.51
[36]
  interaction score: -1.57
[37]
  interaction score: -1.49
[38]
  interaction score: -1.43
[39]
  interaction score: -1.42
[40]
  interaction score: -1.46

B10: 4H607-bA (peptide)
chain: DEIAQLKQEIAELKQENAELKWKNAQLEQ
[41]
  interaction score: 0.454
[42]
  interaction score: -0.84
[43]
  interaction score: -0.469
[44]
  interaction score: -0.746
[45]
  interaction score: -0.503
[46]
  interaction score: -0.394
[47]
  interaction score: -1.28
[48]
  interaction score: -0.62
[49]
  interaction score: -1.07
[50]
  interaction score: -0.667
[51]
  interaction score: -1.41
[52]
  interaction score: -1.29

B11: 4H3629-AA (peptide)
chain: DKNAALKAEIAALEAKIAALKAKIAALEG
[53]
  interaction score: 1.82
[10]; mean of both orientations
  interaction score: -0.576
[54]
  interaction score: -0.119
[11]; mean of both orientations
  interaction score: -1.46
[12]
  interaction score: -0.761
[23]; mean of both orientations
  interaction score: -0.964
[24]
  interaction score: -1.01
[13]
  interaction score: 0.236
[14]
  interaction score: -2.37
[15]
  interaction score: -1.96
[25]
  interaction score: -1.75
[26]
  interaction score: -1.87
[16]
  interaction score: -0.266

B12: 4H953-bH (peptide)
chain: DEIQELKKKNEELERKNWELKKEIQELER
[51]
  interaction score: -0.129
[55]
  interaction score: -0.919
[27]
  interaction score: -1.63

B13: 4H717-bA (peptide)
chain: DEIAQLKQENAELKQEIAELKWKIAQLEQ
[43]
  interaction score: 0.924
[44]
  interaction score: 0.154
[45]
  interaction score: -0.36
[46]
  interaction score: -1.13
[47]
  interaction score: -1.09
[48]
  interaction score: 0.244
[49]
  interaction score: -0.185
[50]
  interaction score: -0.433
[52]
  interaction score: -0.574
